The values below come from US12590158 (XIYUAN ANJIAN MEDICINE SHANGHAI, dated 2026).

The target of assay [1] is T1, full-length human TrkA expressed on cells (human, UniProt P04629 33-796). The assay is described as follows: cell-based or functional assay.
Assay [2] deals with T1, full-length human TrkA expressed on …. The assay is described as follows: flow cytometry titration on TrkA/CHO cells. As to the method: (§1) The cells were cultured according to the manufacturer's instruction. The cells were harvested in the logarithmic growth phase, re-suspended in flow buffer (PBS+2% FBS, pH 7.4), and added into 96-well plate, 10^5 cells per well (50 µl). 50 µl of 100 µg/mL humanized anti-TrkA antibody was added, incubated at room temperature for 60 min, and centrifuged at 1200 rpm. The supernatant was discarded and the cells were washed 3 times. FITC-labeled goat anti-human Fc antibody (Abeam, ab97224) was diluted to 5 µg/mL with flow buffer and used to re-suspend the cells, incubated at room temperature for 30 min in the dark, centrifuged, and the supernatant was discarded. After washing 3 times, the cells were re-suspended with 7AAD solution (Biolegend, 420403), incubated for 10 min at room temperature, and the binding of the antibody was detected with a flow cytometer (BioRad, ZE5).
The binding curve of the humanized anti-TrkA antibodies and TrkA/CHO cells was detected with the same flow cytometry.

Assay [3] deals with T2, human TrkC expressed on CHO cells (TrkC/CHO, ThermoFisher K1515) (human, UniProt Q16288 32-839).
T2 construct: whole, on cells
T2 sequence (Q16288 32-839): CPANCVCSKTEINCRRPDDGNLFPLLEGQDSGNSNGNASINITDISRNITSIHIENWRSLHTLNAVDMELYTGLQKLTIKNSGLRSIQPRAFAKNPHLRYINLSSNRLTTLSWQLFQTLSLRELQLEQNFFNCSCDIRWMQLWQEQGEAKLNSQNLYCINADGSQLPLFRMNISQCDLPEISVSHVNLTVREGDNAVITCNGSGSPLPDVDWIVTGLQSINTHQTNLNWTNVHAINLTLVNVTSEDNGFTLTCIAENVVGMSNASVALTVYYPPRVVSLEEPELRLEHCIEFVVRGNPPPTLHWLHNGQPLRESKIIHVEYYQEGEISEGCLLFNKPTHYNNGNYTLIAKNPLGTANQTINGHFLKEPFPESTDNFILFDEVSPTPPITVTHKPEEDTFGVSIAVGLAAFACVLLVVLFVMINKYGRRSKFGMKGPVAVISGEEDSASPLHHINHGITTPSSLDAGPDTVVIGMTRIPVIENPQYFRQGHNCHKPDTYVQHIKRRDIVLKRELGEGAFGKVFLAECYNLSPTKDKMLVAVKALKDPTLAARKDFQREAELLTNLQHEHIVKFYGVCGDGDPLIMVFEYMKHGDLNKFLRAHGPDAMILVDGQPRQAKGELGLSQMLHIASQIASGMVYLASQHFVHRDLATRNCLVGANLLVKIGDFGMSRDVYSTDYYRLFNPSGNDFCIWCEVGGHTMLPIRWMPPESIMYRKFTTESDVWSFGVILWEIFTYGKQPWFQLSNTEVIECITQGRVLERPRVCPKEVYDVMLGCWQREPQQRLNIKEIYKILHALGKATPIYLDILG
The assay can be described thus: flow cytometry on TrkC/CHO cells, FITC goat anti-human Fc. As to the method:
(§2) CHO-K1 was used as a negative control. The binding of the humanized antibodies to the four cell lines was detected by flow cytometry.
as §1

Assay [4] addresses T3, human TrkA extracellular region (33-417) protein containing mouse Fc (human, UniProt P04629 33-417).
T3 construct: range 33-417
The assay is described as follows: ELISA, coated human TrkA (33-417)-mouse Fc, anti-human IgG-HRP. The protocol: Each well of a 96-well microtiter plate was coated with 50 ng of human TrkA, washed and blocked, then added with serially diluted humanized antibodies, and incubated for 1 hour at room temperature. After washing three times, horseradish peroxidase-conjugated goat anti-human IgG antibody (ThermoFisher, A18817) was added and reacted at room temperature for 1 hour. After washing three time, tetramethylbenzidine (TMB, Biolegend) was added for color development. 1M HCl was used to terminate the color development, and the absorbance values were read at 450 nm with a microplate reader.

The target of assay [5] is T4, human TrkB expressed on CHO cells (TrkB/CHO, ThermoFisher K1491) (human, UniProt Q16620 32-822).
T4 construct: whole, on cells
T4 sequence (Q16620 32-822): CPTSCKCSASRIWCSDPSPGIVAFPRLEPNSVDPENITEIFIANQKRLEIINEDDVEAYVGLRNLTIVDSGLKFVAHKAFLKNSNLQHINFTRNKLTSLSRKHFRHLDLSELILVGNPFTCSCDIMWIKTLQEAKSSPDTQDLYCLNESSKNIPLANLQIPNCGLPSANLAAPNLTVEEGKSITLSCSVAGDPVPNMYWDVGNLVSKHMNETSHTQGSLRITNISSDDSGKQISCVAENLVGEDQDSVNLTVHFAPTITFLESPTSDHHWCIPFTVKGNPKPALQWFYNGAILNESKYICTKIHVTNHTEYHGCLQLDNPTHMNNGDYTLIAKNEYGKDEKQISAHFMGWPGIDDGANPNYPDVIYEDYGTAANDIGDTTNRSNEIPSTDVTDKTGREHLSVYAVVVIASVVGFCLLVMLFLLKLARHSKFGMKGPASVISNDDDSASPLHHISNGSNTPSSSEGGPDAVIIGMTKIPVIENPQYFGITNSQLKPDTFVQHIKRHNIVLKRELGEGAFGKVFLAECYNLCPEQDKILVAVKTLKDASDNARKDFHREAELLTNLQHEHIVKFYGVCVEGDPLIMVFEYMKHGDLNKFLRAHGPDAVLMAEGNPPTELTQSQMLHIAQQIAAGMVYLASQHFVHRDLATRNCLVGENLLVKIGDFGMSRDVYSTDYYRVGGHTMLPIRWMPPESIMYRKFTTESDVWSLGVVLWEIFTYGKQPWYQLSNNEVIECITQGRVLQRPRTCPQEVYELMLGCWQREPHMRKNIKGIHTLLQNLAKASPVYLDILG
The assay is described as follows: flow cytometry on TrkB/CHO cells, FITC goat anti-human Fc. The protocol: as §2, §1

For assay [6], the target named is T1, full-length human TrkA expressed on …. The assay can be described thus: cell-based or functional assay. This is another data set of the same source.

T1 sequence (P04629 33-796): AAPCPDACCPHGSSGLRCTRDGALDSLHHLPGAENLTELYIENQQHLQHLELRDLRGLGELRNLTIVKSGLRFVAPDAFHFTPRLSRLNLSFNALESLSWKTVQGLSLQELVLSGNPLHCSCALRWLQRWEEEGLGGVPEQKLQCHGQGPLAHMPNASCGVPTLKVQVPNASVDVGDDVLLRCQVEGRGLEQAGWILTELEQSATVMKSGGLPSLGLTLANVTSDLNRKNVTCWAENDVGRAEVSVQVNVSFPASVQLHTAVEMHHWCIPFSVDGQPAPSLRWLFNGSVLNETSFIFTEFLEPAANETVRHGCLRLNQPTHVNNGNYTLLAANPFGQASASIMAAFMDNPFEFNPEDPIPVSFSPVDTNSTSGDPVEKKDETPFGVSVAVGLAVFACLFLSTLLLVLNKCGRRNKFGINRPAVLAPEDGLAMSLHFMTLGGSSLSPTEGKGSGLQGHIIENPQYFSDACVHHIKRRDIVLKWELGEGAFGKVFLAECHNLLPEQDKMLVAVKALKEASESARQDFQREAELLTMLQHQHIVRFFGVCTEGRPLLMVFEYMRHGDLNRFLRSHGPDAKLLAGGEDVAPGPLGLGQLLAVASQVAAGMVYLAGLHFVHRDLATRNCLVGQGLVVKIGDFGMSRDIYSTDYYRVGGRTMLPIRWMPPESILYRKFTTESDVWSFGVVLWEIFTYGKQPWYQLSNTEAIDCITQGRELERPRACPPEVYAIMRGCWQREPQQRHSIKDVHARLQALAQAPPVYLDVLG
T3 sequence (P04629 33-417 limits assumed): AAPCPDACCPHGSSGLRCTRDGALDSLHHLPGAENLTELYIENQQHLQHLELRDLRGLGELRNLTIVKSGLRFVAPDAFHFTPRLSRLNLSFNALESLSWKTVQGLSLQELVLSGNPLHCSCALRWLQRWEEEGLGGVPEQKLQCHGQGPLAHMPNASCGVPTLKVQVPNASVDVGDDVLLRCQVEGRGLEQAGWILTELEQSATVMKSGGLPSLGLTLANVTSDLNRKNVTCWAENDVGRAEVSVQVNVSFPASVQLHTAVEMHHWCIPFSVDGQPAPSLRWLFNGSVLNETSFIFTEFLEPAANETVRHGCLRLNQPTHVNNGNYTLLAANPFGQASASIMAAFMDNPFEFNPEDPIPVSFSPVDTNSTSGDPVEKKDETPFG

B1: humanized anti-TrkA antibody 42F5-08 (antibody, V domains shown)
VH: QVQLVQSGAEVKKPGSSVKVSCKSSGYTFTNYWMHWVRQAPGQGLEWIGEIYPNNGRVNYNEKFKNRATLTVDISTSTAYMELSSLRSEDTAVYYCARSRYDPMEDWGQGTTVTVSS
VL: QVQLTQSPSSLSASVGDRVTITCSASSSVGYMHWYQQKPGKAPKRWIYDTSKLASGVPSRFSGSGSGTDYTLTISSLQPEDFATYFCQQWSSIPLTFGQGTRLEIK
notes: VH grafted to human IgG4 heavy chain constant region, VL to human Kappa light chain constant region; also called 43F5-08 [sic]
With B1, the “IC50 of inhibiting NGF-induced TrkA/Ba/F3 cell proliferation” value in assay [1] is 3.54 nM. Further, the EC50 in assay [2] was 0.535 nM; in assay [4], 0.055 nM. Further, the binding result in assay [3] and in assay [5] was “no binding” throughout. Besides, in assay [6], the “IC50 of inhibiting NGF-induced TF-1 cell proliferation” value amounted to 1.65 nM.

B2: humanized anti-TrkA antibody 42F5-11 (antibody, V domains shown)
VH: QVQLVQSGAEVKKPGASVKVSCKSSGYTFTNYWMHWVRQAPGQGLEWIGEIYPNNGRVNYNEKFKNRATLTVDISISTAYMELSRLRSDDTAVYYCARSRYDPMEDWGQGTTVTVSS
VL: EVVLTQSPATLSLSPGERATLSCSASSSVGYMHWYQQKPGQAPRRWIYDTSKLASGVPARFSGSGSGTDYTLTISSLEPEDAAVYFCQQWSSIPLTFGQGTRLEIK
notes: VH grafted to human IgG4 heavy chain constant region, VL to human Kappa light chain constant region
Take B2: in assay [1], the “IC50 of inhibiting NGF-induced TrkA/Ba/F3 cell proliferation” value came out at 2.81 nM. The half-maximal effective concentration (EC50) in assay [2] was found to be 0.513 nM; in assay [4] it was 0.05 nM. The binding result in assay [3] and in assay [5] was “no binding” in each case. Moreover, the “IC50 of inhibiting NGF-induced TF-1 cell proliferation” value in assay [6] was determined as 1.4 nM.

B3: humanized anti-TrkA antibody 42F5-13 (antibody, V domains shown)
VH: QVQLVQSGAEVKKPGASVKVSCKSSGYTFTNYWMHWVRQAPGQGLEWMGEIYPNSGRVNYNEKFKNRVTMTVDISISTAYMELSRLRSDDTAVYYCARSRYDPMEDWGQGTTVTVSS
VL: DVQLTQSPSSLSASVGDRVTITCSASSSVGYMHWYQQKPGKAPKRLIYDTSKLASGVPSRFSGSGSGTDYTLTISSLQPEDFATYFCQQWSSIPLTFGQGTRLEIK
notes: 42F5-01 with NG55-56 of the VH mutated to SG55-56
Regarding B3, in assay [1], the “IC50 of inhibiting NGF-induced TrkA/Ba/F3 cell proliferation” value stood at 3.31 nM. Besides, the EC50 stood at 0.518 nM in assay [2] and 0.087 nM in assay [4]. The binding result in assay [3] and in assay [5] was “no binding” each time. In addition, the “IC50 of inhibiting NGF-induced TF-1 cell proliferation” value in assay [6] was found to be 0.867 nM.

B4: humanized anti-TrkA antibody 42F5-14 (antibody, V domains shown)
VH: QVQLVQSGAEVKKPGASVKVSCKSSGYTFTNYWMHWVRQAPGQGLEWMGEIYPNQGRVNYNEKFKNRVTMTVDISISTAYMELSRLRSDDTAVYYCARSRYDPMEDWGQGTTVTVSS
VL: DVQLTQSPSSLSASVGDRVTITCSASSSVGYMHWYQQKPGKAPKRLIYDTSKLASGVPSRFSGSGSGTDYTLTISSLQPEDFATYFCQQWSSIPLTFGQGTRLEIK
notes: 42F5-01 with NG55-56 of the VH mutated to QG55-56
With B4, the “IC50 of inhibiting NGF-induced TrkA/Ba/F3 cell proliferation” value in assay [1] amounted to 3.27 nM. Also, the EC50 worked out at 0.547 nM in assay [2] and 0.071 nM in assay [4]. For the same molecule, the binding result in assay [3] and in assay [5] was “no binding” in each case. Further, in assay [6], the “IC50 of inhibiting NGF-induced TF-1 cell proliferation” value was determined as 1.94 nM.
